What was measured:
Gal4p = Gal4p (yeast (Saccharomyces cerevisiae), UniProt P04386); assay: cell-based or functional assay
[1] = target: Gal4p-PSD fusion protein (yeast (Saccharomyces cerevisiae); Arabidopsis thaliana) (UniProt P04386)

GFP expression from PGAL1-GFP reporter (GFP/OD600), blue light (GAL80 expressed) against dark, strain YEZ100 (OptoINVRT1, gal4 gal80 deleted background) (Gal4p): 45.7 fold decrease
GFP expression from PGAL1-GFP reporter (GFP/OD600), blue light against dark, strain YEZ102 (OptoINVRT3) [1]: 70 fold
B1: Gal80p (other)
chain: MDYNKRSSVSTVPNAAPIRVGFVGLNAAKGWAIKTHYPAILQLSSQFQITALYSPKIETSIATIQRLKLSNATAFPTLESFASSSTIDMIVIAIQVASHYEVVMPLLEFSKNNPNLKYLFVEWALACSLDQAESIYKAAAERGVQTIISLQGRKSPYILRAKELISQGYIGDINSIEIAGNGGWYGYERPVKSPKYIYEIGNGVDLVTTTFGHTIDILQYMTSSYFSRINAMVFNNIPEQELIDERGNRLGQRVPKTVPDHLLFQGTLLNGNVPVSCSFKGGKPTKKFTKNLVIDIHGTKGDLKLEGDAGFAEISNLVLYYSGTRANDFPLANGQQAPLDPGYDAGKEIMEVYHLRNYNAIVGNIHRLYQSISDFHFNTKKIPELPSQFVMQGFDFEGFPTLMDALILHRLIESVYKSNMMGSTLNVSNISHYSL

Source: patent US20190119331A1, “SYSTEM AND METHOD OF OPTOGENETICALLY CONTROLLING METABOLIC PATHWAYS FOR THE PRODUCTION OF CHEMICALS” (The Trustees of Princeton University, published 2019)
